For assay [1], the target named is D474A-PfCpn60 (Plasmodium falciparum mitochondrial chaperonin 60, ATP hydrolysis-deficient mutant) (Plasmodium falciparum (isolate FCR-3/Gambia)). Description: negative stain electron microscopy.
Assay [2] has the same target. Description: crystal structure; D474A-PfCpn60 with bound ATP; crystals from phosphate citrate buffer pH 4.4, 13% isopropanol, lithium sulfate; 3.69 Å; one heptameric ring in the asymmetric unit.

In the case of “D474A-PfCpn60 (Plasmodium falciparum mitochondrial chaperonin 60, ATP hydrolysis-deficient mutant) (domain or fragment)”, the stoichiometry N (as a rule, the number of molecules, sites or subunits per partner or assembly) in assay [1] was 7; in assay [2], 14.

These data come from publication PMC7960994.
